# Several values for one entry are separate records, joined by “and”; a condition that tells them apart may be missing. Equal values may be shown once. *1 amine or outer side, *2 acyl side, *3 side chain or, on linkers, in order; H or OH if unused. Bridges are numbered along the chain shown (N, C = ends). Roman numbers before positions name the chains, in order. Where no end group is shown, it is not given here. [ ]: non-standard residue; d: D form. branched linker from compound 8 (carries γGlu-hexadecanedioic acid) = not defined here; d(γGlu) = O=C(O)[C@@H](CCC(=O)[*:2])N[*:1]; Bip = N[C@@H](Cc1ccc(-c2ccccc2)cc1)C(=O)O; PEG8 = NCCOCCOCCOCCOCCOCCOCCOCCOCCC(=O)O; NMeF = CN[C@@H](Cc1ccccc1)C(=O)O; Ahp(2) = CCCCC[C@H](N)C(=O)O
# B1: I-27 (peptide)
# peptide 1: ARXYHDGVLXXDC
# peptide 2: DCAWHLGELVWCT
# modifications: not fully specified; Cys2-Cys12 disulfide; N-terminus extended by D-Glu(side chain amide of 12-aminododecanoic acid)-PEG6-; X3 and X11 = Ahp ((S)-2-aminoheptanoic acid), X10 = Bph (4-biphenylylalanine); N-terminal -C(O)CH2- (from 2-bromoacetic acid) thioether-linked to S of Cys13; C-terminus carries PEG10 linker
# B2: I-32 (peptide)
# peptide 1: {‑C(O)CH2‑}-AR[Ahp(2)]YHDGVL[Bip][Ahp(2)]DC-{branched linker from compound 8 (carries γGlu-hexadecanedioic acid)}
# peptide 2: DDCAWHLGELVWCT-NH2
# modifications: disulfide II:3-II:13; not fully specified (N-terminus); reading uncertain; also: N-terminus of chain 2 amide-bonded to the branched linker (one conjugate), thioether at chain A 13 to a chain's N-terminus via -C(O)-CH2- (from 2-bromoacetic acid)
# notes: One covalent conjugate
# B3: I-33 (peptide)
# peptide 1: ARXYHDGVLXXDC
# peptide 2: DCAWHLGELVWCT
# modifications: Cys2-Cys12 disulfide; N-terminus extended by PEG8-; X3 and X11 = Ahp ((S)-2-aminoheptanoic acid), X10 = Bph (4-biphenylylalanine); N-terminal -C(O)CH2- (from 2-bromoacetic acid) thioether-linked to S of Cys13; C-terminus carries PEG8 linker
# B4: I-40 (peptide)
# peptide 1: Ac-AR[Ahp(2)]YHDGVL[Bip][Ahp(2)]DCG
# peptide 2: GDCAWHLGELVWCT-NH2
# modifications: disulfide II:3-II:13; also: C-terminal Gly of chain 1 amide-bonded to N-terminal Gly of chain 2 (one chain), thioether at chain A 13 to a chain's N-terminus
# notes: The section is headed I-40, its product is called compound 523; also called compound 523
# B5: I-39 (peptide)
# peptide 1: ARXYHDGVLXXDC
# peptide 2: DCAWHLGELVWCT
# modifications: Cys2-Cys12 disulfide; N-terminus extended by hydrazinecarbonyl (urea from Boc-NH-NH2 and CDI)-PEG6-; X3 and X11 = Ahp ((S)-2-aminoheptanoic acid), X10 = Bph (4-biphenylylalanine); N-terminal -C(O)CH2- (from 2-bromoacetic acid) thioether-linked to S of Cys13; C-terminus carries PEG10 linker
# B6: I-30 (peptide)
# peptide 1: AR[Ahp(2)]YHDGVL[Bip][Ahp(2)]DC-{4‑aminobutanoic acid}
# peptide 2: DCAWHLGELVWCT-NH2
# modifications: disulfide II:2-II:12; also: thioether at chain A 13 to a chain's N-terminus
# B7: I-28 (peptide)
# peptide 1: {‑C(O)CH2‑}-AR[Ahp(2)]YHDGVL[Bip][Ahp(2)]DC-{PEG8-d(γGlu)-d(γGlu)-D‑Glu(side chain amide of 12-aminododecanoic acid)-d(γGlu)-d(γGlu)-Gly-Gly}
# peptide 2: DCAWHLGELVWCT
# modifications: disulfide II:2-II:12; also: chain 2 joined to the end of the chain 1 linker, thioether at chain A 13 to a chain's N-terminus
# B8: A L H MeF V L P Bph A W V C (peptide)
# peptide: ALH[NMeF]VLP[Bip]AWVC
# modifications: not fully specified (N-terminus, bridges); printed as A L H MeF V L P Bph A W V C
# notes: Alanine variant at position 9
# B9: A L H MeF V L A Bph V W V C (peptide)
# peptide: ALH[NMeF]VLA[Bip]VWVC
# modifications: not fully specified (N-terminus, bridges); printed as A L H MeF V L A Bph V W V C
# notes: Alanine variant at position 7
# B10: A L H MeF V L P Bph V A V C (peptide)
# peptide: ALH[NMeF]VLP[Bip]VAVC
# modifications: not fully specified (N-terminus, bridges); printed as A L H MeF V L P Bph V A V C
# notes: Alanine variant at position 10
# B11: A L H MeF V L P Bph V W A C (peptide)
# peptide: ALH[NMeF]VLP[Bip]VWAC
# modifications: not fully specified (N-terminus, bridges); printed as A L H MeF V L P Bph V W A C
# notes: Alanine variant at position 11
# Biological target: CD38 on Daudi cells (ATCC CCL-213) (human) (UniProt P28907)
# Experiment: cell-based or functional assay
Molecule,% dead cells at 1 nM,% dead cells at 3 nM,% dead cells at 10 nM,% dead cells at 30 nM,% dead cells at 100 nM,"EC50 (nM), killing of target cells [nM]",% dead cells at 300 nM,% dead cells at 1000 nM,% dead cells at 3000 nM,% dead cells at 0.03 nM [%]
B1,5.6% and 5.7%,8.2% and 7.7%,7.9% and 8.3%,9.4% and 10.3%,10.3% and 9.1%,2.4,–,–,–,–
B2,14.4% and 13.5%,12.8% and 13.5%,13% and 13.3%,14.7% and 14.3%,17.7% and 17.2%,–,19.5% and 20.1%,19.7% and 20.4%,16.9% and 16.8%,–
B3,–,–,23.4% and 22.3%,28.7% and 28.8%,32.8% and 31.3%,11,31.9% and 31.6%,22.6% and 23.3%,16.6%,–
B4,–,–,–,–,–,1.9,–,–,–,–
B5,15.7% and 16.5%,17.7% and 15.9%,22.4% and 21.4%,22.7% and 22.2%,23.4% and 25.4%,–,21.3% and 21.5%,–,–,11
B6,14.3% and 14.7%,14.7% and 15.7%,14.1%,16.3% and 15.3%,17.1% and 18.1%,175,19% and 20.6%,–,18.1% and 17.5%,–

# Same assay, conditions: not given
row,Molecule,% dead cells at 0.3 nM
1,B5,11.9% and 12.1%

# Biological target: T1, CD38 (human, UniProt P28907 1-300)
# Experiment: cell-based or functional assay
row,Molecule,RLU at 100 nM [RLU]
1,B2,21800

# Biological target: T1, CD38
# Experiment: cell-based or functional assay
# Remark: another data set of the same source
row,Molecule,"EC50 (nM), ADCC reporter cells [nM]"
1,B1,3
2,B2,63
3,B3,4.3
4,B4,50
5,B5,0.61
6,B7,14
7,B6,12

# Biological target: CD38 (human) (UniProt P28907)
# Experiment: ELISA; larger values represent binding
row,Molecule,Binding Assay (ELISA signal)
1,Ala Arg Ahp Tyr His Asp Gly Val Leu Bph Ahp Asp Cys (SEQ ID NO.1) (peptide),1.97
2,Ala Leu His MePhe Val Leu Pro Bph Val Trp Val Cys (SEQ ID NO.2) (peptide),1.69

# Biological target: T2, CD38 (human, UniProt P28907 43-300, limits assumed)
# T2 construct: also called cluster of differentiation 38; cyclic ADP ribose hydrolase
# Experiment: ELISA; larger values represent binding
row,Molecule,Binding Assay (ELISA signal)
1,B8,0.12
2,B9,0.11
3,"ALH[NMeF]VLPAVWVC (not fully specified; printed as A L H MeF V L P A V W V C, Alanine variant at position 8) [A L H MeF V L P A V W V C]",0.09
4,B10,0.1
5,B11,0.41

# Biological target: CD38 on Daudi cells (human) (UniProt P28907)
# Experiment: ternary binding, flow cytometry: Daudi cells + PE human IgG1k
Molecule,MFI at 0.03 nM,MFI at 0.1 nM,MFI at 0.3 nM,MFI at 1 nM,MFI at 3 nM,MFI at 10 nM,MFI at 30 nM,MFI at 100 nM,MFI at 300 nM,MFI at 3000 nM
B1,2140 and 3880,2880 and 2430,3560 and 3190,3130 and 2450,3950 and 3970,3320 and 9770,7880 and 8230,11500 and 10800,7180 and 11100,3940 and 5160
B2,–,–,1990 and 1770,2310 and 1770,1690 and 1630,2890 and 1820,4350 and 2820,13800 and 19500,26600 and 20600,23000 and 26100
B3,–,–,–,3470 and 3690,3660 and 1850,21100 and 13600,23700,31900 and 24200,24100 and 34300,28400 and 12400
B4,819 and 477,956 and 1170,1150 and 1290,1100 and 966,900 and 1070,1950 and 1960,2160 and 2640,6090 and 6880,7340 and 7420,7330 and 6680
B5,5280 and 4130,6760 and 4610,–,4580 and 5160,6080 and 8740,5300 and 7840,9350 and 9460,16400 and 17300,12200 and 16900,10100 and 15000

# Same assay, conditions: not given
row,Molecule,MFI at 1000 nM
1,B2,28500 and 32400
2,B3,17400 and 22200
3,B4,7290 and 7250
4,B5,9710 and 12000

# Biological target: T1, CD38
# Experiment: ternary binding, flow cytometry: PE-labelled human IgG1k recruited to Daudi cells
# Experimental: Various technologies can be utilized to assess and/or characterize recruitment of antibodies to target cells, e.g., cancer cells. One such assay is a ternary binding assay. An exemplary protocol is described herein. Compounds were diluted in DMSO (MP 191418) to 1000× the starting concentration used in the assay into a 96 well polypropylene plate (Corning 3357). They were then serially diluted in ½ log increments to generate 8-12 concentrations in DMSO (assay dependent). These DMSO stocks were then step diluted 1/100 into PBS (VWR Cat. #20012043). Step diluted compound range was then added into the polypropylene assay plate 1/10 the volume of the assay volume. […] The cells were then added into the polypropylene plate with the step diluted compounds and incubated at 37° C. for 30 min. At the end of the incubation, the cells were centrifuged and washed 2× with How buffer containing 0.5% Tween 20 (BP337-500). Samples were analyzed on a BD FacsCelesta. Mean fluorescence was analyzed using Graphpad Prism and curves were fit using log(inhibitor) vs. response—Variable slope (four parameters).
row,Molecule,IC50 [nM]
1,B1,6
2,B2,88
3,B3,9.3
4,B4,50
5,B5,3.3

# Reference: patent US20230028880A1, “CD38-BINDING AGENTS AND USES THEREOF” (Biohaven Therapeutics Ltd., priority 2019, published 2023)
